# Reference: patent publication US20200046811
# Molecular target: T1, Recombinant Human FGF23 (Fibroblast Growth Factor 23) (UniProt Q9GZV9)
# T1 sequence: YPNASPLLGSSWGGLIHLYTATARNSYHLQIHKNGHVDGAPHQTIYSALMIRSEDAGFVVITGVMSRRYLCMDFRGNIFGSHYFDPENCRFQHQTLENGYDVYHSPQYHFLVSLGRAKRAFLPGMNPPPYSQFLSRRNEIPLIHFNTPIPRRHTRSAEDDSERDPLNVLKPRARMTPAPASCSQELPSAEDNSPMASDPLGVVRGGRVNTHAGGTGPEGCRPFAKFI
substance,measurement,value
Recombinant human uPA (urokinase plasminogen activator),"in vitro proteolysis of FGF23, silver stained SDS-PAGE gel",smaller fragments are generated on a silver stained SDS-PAGE gel indicating proteolytic cleavage
